# T1: telitacicept
# T1 construct: TACI-Fc fusion protein drug; also called Tai ai; TACI-Fc fusion protein
# T1 chain: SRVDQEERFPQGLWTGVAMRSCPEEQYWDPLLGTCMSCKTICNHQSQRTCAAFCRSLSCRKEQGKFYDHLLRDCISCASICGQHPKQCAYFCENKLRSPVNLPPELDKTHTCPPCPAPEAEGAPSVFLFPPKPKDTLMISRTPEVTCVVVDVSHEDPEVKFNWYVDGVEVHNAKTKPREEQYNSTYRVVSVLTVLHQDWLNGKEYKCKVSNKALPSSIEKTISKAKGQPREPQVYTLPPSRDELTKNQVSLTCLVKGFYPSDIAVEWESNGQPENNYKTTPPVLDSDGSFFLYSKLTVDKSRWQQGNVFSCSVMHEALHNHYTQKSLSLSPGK
# Experiments:
# telitacicept [1] = biological target: T1, telitacicept; assay: competition ELISA; BLyS coated; 30 ng/ml telitacicept pre-incubated with 10-fold diluted supernatant; telitacicept bound to BLyS read with anti-human IgG Fc-HRP
# Description: (§1) The hybridoma cells were cultured, and the supernatants were used for enzyme-linked immunosorbent assay (ELISA). BLyS (R&D Systems) was coated on a 96-well microplate and incubated at 4° C. overnight. The plate was blocked with 300 μl of 3% BSA-PBST per well and incubated at 37° C. for 3 h. The supernatants were diluted at ratios of 10-fold, 100-fold and 1000-fold with PBST and separately incubated with 30 ng/ml telitacicept for a given period. These mixtures were then added to the 96-well plate at 100 μl per well and incubated at 37° C. for 1 h. Goat anti-human IgG Fc-HRP (1:5000 dilution) was added at 100 μl per well and incubated at 37° C. for 1 h. 100 μL of substrate per well was added for color development, and the absorbance was read at 450 nm and 655 nm. Antibodies with high activity were screened based on the difference in absorbance between 450 nm and 655 nm, respectively.
# telitacicept [2] = biological target: T1, telitacicept; assay: competition ELISA; BLyS coated; 30 ng/ml telitacicept pre-incubated with 100-fold diluted supernatant; telitacicept bound to BLyS read with anti-human IgG Fc-HRP
# Description: as §1
# telitacicept [3] = biological target: T1, telitacicept; assay: competition ELISA; BLyS coated; 30 ng/ml telitacicept pre-incubated with 1000-fold diluted supernatant; telitacicept bound to BLyS read with anti-human IgG Fc-HRP
# Description: as §1
# telitacicept [4] = biological target: T1, telitacicept; assay: BLI (Octet RH16); biotinylated 1B11D2 on SA biosensors, telitacicept as analyte; kinetic fit
# Description: An Octet RH16 molecular interaction analyzer (Sartorius) was used. An appropriate amount of antibody 1B11D2 reacted with EZ-Link Sulfo-NHS-LC-LC-Biotin ([…]) at room temperature for 30 min followed by centrifugation with a Zeba spin desalting column to collect the biotinylated antibody 1B11D2.
# The biotinylated antibody 1B11D2 was immobilized on Octet SA Biosensors ([…]) and telitacicept at various concentrations was used as the analyte. The detection curve was fitted by kinetic analysis to obtain the results.
Binder,Absorbance (450 nm - 655 nm) (telitacicept [1]),Absorbance (450 nm - 655 nm) (telitacicept [2]),Absorbance (450 nm - 655 nm) (telitacicept [3]),Kd (telitacicept [4]),koff (telitacicept [4]),kon (telitacicept [4])
"antibody 12C9F3 (antibody, mouse IgG1, kappa, V domains shown, Mouse hybridoma antibody, purified from the culture supernatant of cell line 12C9F3-1; The printed chains seem to include a leader peptide, but no cleavage site is stated; also called 12C9F3-1 (hybridoma cell line / culture supernatant)) VH: EVQLQQSGPELVKPGASVKISCKTSGYTFTEYAMHWVKQSHGKSLEWIGGINPNHGGTSNNQKFKGKATLTVDKSSSTAYMDFRSLTSEDSAVYYCARWGTDPFFAYWGQGTLVTVSA VL: DIVMTQSHKFMSTSVGDRVSITCKASQDVSTAVAWYQQKPGQSPKLLIYWASTRHTGVPDRFTGSGSGTDYTLTITSVQAEDLTLYYCHQHYAPPWTFGGGTKLEIKR",0.082,0.242,0.443,–,–,–
"antibody 1B11D2 (antibody, mouse IgG1, kappa, V domains shown, Mouse hybridoma antibody, purified from the culture supernatant of cell line 1B11D2-1; The printed heavy and light chains start with what looks like a leader peptide (MGWSW..., MKSQT...); also called 1B11D2-1 (hybridoma cell line / culture supernatant); TACI antibody (1B11D2)) VH: EVQLQQSGPELVKPGASVKISCKTSGYTFTEFSMHWVQQSHGKSLEWIGGINPNHGGSSYNQKFKGKATLTVDKSSSTAYMELRSLTSEDSAVYYCARRGDYYGNLYYAMDYWGQGTSVTVSS VL: SIVMTQTPKFLLVSVGDSITITCKASQSVSNDVVWYQQKPGQSPKLLIYYASNRYTGVPDRFTGSGYGTDFTFTITTVQAEDLAVYFCQQDYSSPWAFGGGTKLEIKR",0.016,0.141,0.454,0.325 nM,0.000105 s⁻¹,323000 M⁻¹ s⁻¹
"antibody 7G12F8 (antibody, mouse IgG1, kappa, V domains shown, Mouse hybridoma antibody, purified from the culture supernatant of cell line 7G12F8-1; The printed chains seem to include a leader peptide, but no cleavage site is stated; also called 7G12F8-1 (hybridoma cell line / culture supernatant)) VH: EVQLQQSGPELVRPGASVKKSCKTSGYTFTAYALHWVKQSHGTSLEWIGGINPNHGGVSYNQKFKDKATLTVDKSSSTAYMELRSLTSEDSAVYYCARFRWDLYYGMDYWGQGTSVIVAS VL: QIVLTQSPAIISVSSGEKVTMPCSDNSNMIYMYWNLWKPGTSPKRWIYDTSRLASGVPARFSGSGFGTSFSLTVSSMEAEDAATYYCHQRSIYSWTFGGGTKLEIKR",0.057,0.215,0.448,–,–,–

# Source: patent US20260098866A1 (REMEGEN, published 2026)
